# Measured values published in article PMC7035113 (Nature, 2020).
# T1: SA2-SCC1 complex (SA2 80-1060 in complex with SCC1 281-420) (human | , UniProt Q8N3U4;O60216)
# T1 sequence 1: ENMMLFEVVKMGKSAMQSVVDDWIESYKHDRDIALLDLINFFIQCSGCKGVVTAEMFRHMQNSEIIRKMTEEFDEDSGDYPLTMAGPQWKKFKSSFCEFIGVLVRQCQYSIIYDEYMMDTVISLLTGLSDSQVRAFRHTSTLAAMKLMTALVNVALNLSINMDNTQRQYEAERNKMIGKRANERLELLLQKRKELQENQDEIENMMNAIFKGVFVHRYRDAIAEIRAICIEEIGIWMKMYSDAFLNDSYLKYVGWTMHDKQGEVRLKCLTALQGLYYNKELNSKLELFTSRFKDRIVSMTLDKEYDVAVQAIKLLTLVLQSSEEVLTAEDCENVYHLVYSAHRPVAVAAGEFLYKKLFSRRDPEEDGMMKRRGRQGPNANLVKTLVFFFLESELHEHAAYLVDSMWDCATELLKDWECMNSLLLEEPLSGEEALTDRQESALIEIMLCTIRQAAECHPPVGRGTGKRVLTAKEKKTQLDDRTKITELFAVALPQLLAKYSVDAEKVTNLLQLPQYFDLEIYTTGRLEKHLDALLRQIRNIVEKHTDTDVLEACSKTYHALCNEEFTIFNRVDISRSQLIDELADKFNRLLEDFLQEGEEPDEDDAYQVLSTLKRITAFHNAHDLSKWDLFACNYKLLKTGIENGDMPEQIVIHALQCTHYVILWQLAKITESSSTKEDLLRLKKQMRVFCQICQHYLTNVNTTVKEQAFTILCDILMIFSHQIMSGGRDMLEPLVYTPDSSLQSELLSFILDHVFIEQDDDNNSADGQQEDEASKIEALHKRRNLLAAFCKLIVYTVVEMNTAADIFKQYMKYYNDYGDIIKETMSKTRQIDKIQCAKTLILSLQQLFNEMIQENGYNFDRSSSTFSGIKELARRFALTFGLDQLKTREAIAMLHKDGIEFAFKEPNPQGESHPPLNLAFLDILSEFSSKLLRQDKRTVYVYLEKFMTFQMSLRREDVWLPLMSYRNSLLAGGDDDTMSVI
# T1 sequence 2: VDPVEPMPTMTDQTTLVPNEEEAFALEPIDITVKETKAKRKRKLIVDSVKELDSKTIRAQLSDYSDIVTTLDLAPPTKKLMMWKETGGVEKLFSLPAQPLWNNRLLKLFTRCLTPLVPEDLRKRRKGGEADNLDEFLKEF
# What was measured:
# [1] = biological target: T1, SA2-SCC1 complex (SA2 80-1060 in …); experiment: peptide or protein array
# [2] = biological target: T1, SA2-SCC1 complex (SA2 80-1060 in …); experiment: ITC
# [3] = biological target: T1, SA2-SCC1 complex (SA2 80-1060 in …); experiment: pull-down
Binder,Kd [1] [µM],further results
DVSVFDFEEEQ [CTCF array peptide Y226F (position 2)],1.6,–
KLSAFNFLDGS [yeast WAPL array peptide from residue 108 (position 10)],10.7,–
KLEFFGFEDHE [WAPL array peptide from residue 425 (position 7)],12.4,–
RKMAFEFDINS [SYCP1 array peptide from residue 882 (position 15)],6.71,–
FTRAYDFETED [SYCP3 array peptide from residue 21 (position 17)],1.96,–
TGDPFGFDSDD [WAPL array peptide from residue 70 (position 6)],5.9,–
KIKYFGFDDLS [WAPL array peptide from residue 450 (position 8)],2.17,–
NYKIKYFGFDDLSESE [WAPL peptide 447-462 (third FGF motif only)],–,Kd [2]: 78.7 µM; dH [2]: -6.81 kcal/mol; stoichiometry N [2]: 1
WAPL residues 1-600 (domain or fragment) MTSRFGKTYSRKGGNGSSKFDEVFSNKRTTLSTKWGETTFMAKLGQKRPNFKPDIQEIPKKPKVEEESTGDPFGFDSDDESLPVSSKNLAQVKCSSYSESSEAAQLEEVTSVLEANSKISHVVVEDTVVSDKCFPLEDTLLGKEKSTNRIVEDDASISSCNKLITSDKVENFHEEHEKNSHHIHKNADDSTKKPNAETTVASEIKETNDTWNSQFGKRPESPSEISPIKGSVRTGLFEWDNDFEDIRSEDCILSLDSDPLLEMKDDDFKNRLENLNEAIEEDIVQSVLRPTNCRTYCRANKTKSSQGASNFDKLMDGTSQALAKANSESSKDGLNQAKKGGVSCGTSFRGTVGRTRDYTVLHPSCLSVCNVTIQDTMERSMDEFTASTPADLGEAGRLRKKADIATSKTTTRFRPSNTKSKKDVKLEFFGFEDHETGGDEGGSGSSNYKIKYFGFDDLSESEDDEDDDCQVERKTSKKRTKTAPSPSLQPPPESNDNSQDSQSGTNNAENLDFTEDLPGVPESVKKPINKQGDKSKENTRKIFSGPKRSPTKAVYNARHWNHPDSEELPGPPVVKPQSVTVRLSSKEPNQKDDGVFKAPA,–,binding result [3]: binds
